Results: publication PMC2891831, “Insight into the Mechanisms of Adenovirus Capsid Disassembly from Studies of Defensin Neutralization” (PLoS Pathogens, 2010)

Key:
HAdV species B2 = assay: Infection assay (hexon staining), HAdV species B2; assay type: cell-based, human adenovirus; conditions: 15 µM HD5, A549 cells, hexon staining at ~48 h, vs. no defensin
Procedure: To determine whether sensitivity to α-defensins is a general property of HAdVs, serotypes representative of HAdV species A–F were tested for infectivity in the presence of 15 µM HD5 or HNP1 (Figure 1). Wild type HAdVs rather than vectors were used for these studies, and infectivity was assessed by staining for hexon production. […] These studies indicate that sensitivity to α-defensins is species specific. In addition, particular HAdV serotypes are not equally sensitive to all defensins, indicating defensin sequence specificity as well.
Figure 1 Sensitivity to neutralization by alpha-defensins is AdV species specific. HAdVs were incubated with 15 µM HD5 (A) or HNP1 (B) and assessed for infectivity on A549 cells. Data are the mean of the percent infectivity compared to control cells infected with each virus in the absence of defensin for at least three independent experiments ± SD. The upper limit for quantification of this assay is 200%. […]
Prior to use in this assay, each virus stock was titrated on A549 cells. […] In parallel, wells were infected with two-fold serial dilutions of each virus to establish a standard curve for quantification with an upper limit of 200%. […] Total well fluorescence above background was quantified with ImageJ software. For each virus, samples were quantified by nonlinear regression against the standard curve using Prism software (GraphPad Software, Inc., La Jolla, CA).

HAdV-51p = assay: Virus-defensin binding assay, HAdV-51p; set-up: species or system human adenovirus
Text: Figure 2 HD5 binding to HAdV. A) HD5 binding to a representative defensin-sensitive serotype (HAdV-5) was quantified by an equilibrium-binding assay. Data are the mean of the number of HD5 molecules bound per virion at the indicated HD5 concentrations from at least three independent experiments ± SD. Binding curves were fitted using Prism software. B) Binding of HD5 to additional defensin-sensitive (HAdV-7p) and resistant (HAdV-19c, -25p, -51p) serotypes expressed as a percent of HD5 bound to HAdV-5. Data are the mean of two or three independent experiments ± SD.
We assessed HD5 binding to additional serotypes after incubation with 20 µM HD5 (Figure 2B). The sensitive serotype HAdV-7p bound 69.3±15.9% of the amount of HD5 bound to HAdV-5 in parallel samples; whereas, the corresponding values for the resistant serotypes HAdV-19c, -25p, and -51p were 32.5±7.5%, 3.3±5.8%, and 24.6±12.0%, respectively.
To measure HD5 binding to HAdV-5 and -51, HD5 was serially diluted in PBS and mixed with 5 µg purified virus. […] The other half of each sample was used to make a standard curve for quantification. […] Virus bands were quantified using ImageQuant NT software (GE Healthcare). […] The amount of HD5 in the centrifuged samples was then quantified against the standard curve using Prism software. […]

Ad5.eGFP = Ad5.eGFP infection, eGFP-positive cells by flow cytometry; assay type: cell-based, human adenovirus; conditions: 15 µM defensin, percent eGFP positive cells vs. no defensin, at least three independent experiments
Text: To gain further insight into the defensin-HAdV interaction, we assessed the requirement for two conserved structural elements on the anti-AdV activity of HD5. All defensins have three disulfide bonds (Figure 3A). […] The antibacterial properties of defensins, which are dependent upon protein-lipid interactions, are not uniformly conformation dependent [27]–[29]. […] In contrast, defensin-related chemokine activity, which relies on protein-protein interactions, is dependent on defensin conformation. We hypothesized that the defensin-capsid interaction for sensitive serotypes would likely be dependent upon defensin conformation, as this would be more typical for protein-protein interactions. […]
Figure 3 HD5 antiviral activity is structure dependent. […] C) Binding of Alexa Fluor 488-labeled HAdV-5 to cells was assessed after incubation with or without 20 µM HD5 or HD5-Abu and in competition with 100 nM 5FK or 16 FK. Data are the mean fold increase in geometric mean fluorescence compared to cells alone and are of at least 10,000 cells from each of three independent experiments ± SD.
To test the activity of HD5 derivates, Ad5.eGFP was incubated with 15 µM of HD5, HD5-Abu, or HD5-E14Q. Infectivity was assessed by enumerating eGFP-positive cells by flow cytometry as described.

B1: HD5: human alpha-defensin; synthetic, obtained from Peptides International; three disulfide bonds (PDB 1ZMP) (peptide, UniProt Q01523 20-94, looked up)
Defensin alpha 5: ESLQERADEATTQKQSGEDNQDLAISFAGNGLSALRTSGSQARATCYCRTGRCATRESLSGVCEISGRLYRLCCR
modifications: Defensin-5
sensitivity to neutralization (infectivity) (HAdV species B2): sensitive | HD5 bound, percent of HD5 bound to HAdV-5 (HAdV-51p; 20 µM HD5, mean of two or three independent experiments ± SD): 24.6±12.0% | level of HD5 binding (in words) (HAdV-51p; HAdV-51p): only a low level of binding | antiviral activity against Ad5.eGFP (Ad5.eGFP): only correctly folded HD5 has antiviral activity
